{
  "source": "paper PMC4520771",
  "about": "(Journal of structural biology, 2015)",
  "molecular_target": "the molecule itself",
  "experiment": "SEC",
  "data": [
    {"protein": "EspB_(1-338), N-terminal EspB fragment (domain or fragment) MTQSQTVTVDQQEILNRANEVEAPMADPPTDVPITPCELTAAKNAAQQLVLSADNMREYLAAGAKERQRLATSLRNAAKAYGEVDEEAATALDNDGEGTVQAESAGAVGGDSSAELTDTPRVATAGEPNFMDLKEAARKLETGDQGASLAHFADGWNTFNLTLQGDVKRFRGFDNWEGDAATACEASLDQQRQWILHMAKLSAAMAKQAQYVAQLHVWARREHPTYEDIVGLERLYAENPSARDQILPVYAEYQQRSEKVLTEYNNKAALEPVNPPKPPPAIKIDPPPPPQEQGLIPGFLMPPSDGSGVTPGTGMPAAPMVPPTGSPGGGLPADTAAQ", "values": [
      {"measurement": "binding result", "result": "binds"}
    ]}
  ]
}
